Data as given in doi:10.1101/2025.05.23.655736 (bioRxiv, 2025).

Biological target: T1, CHAP domain of Streptococcus pneumoniae PcsB (residues A274-D392) (Streptococcus pneumoniae, UniProt Q8DMY4 274-392)
T1 sequence (looked up): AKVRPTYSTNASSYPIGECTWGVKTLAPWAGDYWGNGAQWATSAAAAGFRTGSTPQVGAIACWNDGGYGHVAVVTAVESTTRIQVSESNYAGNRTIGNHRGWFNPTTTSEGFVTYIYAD
Test: SPR

In the case of AQKAA (D-isoglutamine at position 2 (iQ); D-alanine at positions 4 and 5) [synthetic pneumococcal stem pentapeptide L-Ala-D-isoGln-L-Lys-D-Ala-D-Ala], the “fold change of KD against AEKADAD” value is reported as ~15 fold.
